{"source": "patent US20240376183A1", "assay_in_all_cases": "cell-based or functional assay", "key": {"[1]": {"molecular_target": "HIV-1 Env of pseudovirus strain 6545.v4.c1 (HIV-1)"}, "[2]": {"molecular_target": "HIV-1 Env protein of virus strain 89-F1_2_25 (HIV-1)"}, "[3]": {"molecular_target": "HIV-1 YU2 Env, wild type (YU2 pseudovirus) (HIV-1) (UniProt P35961)", "sequence (P35961 32-843 limits assumed)": "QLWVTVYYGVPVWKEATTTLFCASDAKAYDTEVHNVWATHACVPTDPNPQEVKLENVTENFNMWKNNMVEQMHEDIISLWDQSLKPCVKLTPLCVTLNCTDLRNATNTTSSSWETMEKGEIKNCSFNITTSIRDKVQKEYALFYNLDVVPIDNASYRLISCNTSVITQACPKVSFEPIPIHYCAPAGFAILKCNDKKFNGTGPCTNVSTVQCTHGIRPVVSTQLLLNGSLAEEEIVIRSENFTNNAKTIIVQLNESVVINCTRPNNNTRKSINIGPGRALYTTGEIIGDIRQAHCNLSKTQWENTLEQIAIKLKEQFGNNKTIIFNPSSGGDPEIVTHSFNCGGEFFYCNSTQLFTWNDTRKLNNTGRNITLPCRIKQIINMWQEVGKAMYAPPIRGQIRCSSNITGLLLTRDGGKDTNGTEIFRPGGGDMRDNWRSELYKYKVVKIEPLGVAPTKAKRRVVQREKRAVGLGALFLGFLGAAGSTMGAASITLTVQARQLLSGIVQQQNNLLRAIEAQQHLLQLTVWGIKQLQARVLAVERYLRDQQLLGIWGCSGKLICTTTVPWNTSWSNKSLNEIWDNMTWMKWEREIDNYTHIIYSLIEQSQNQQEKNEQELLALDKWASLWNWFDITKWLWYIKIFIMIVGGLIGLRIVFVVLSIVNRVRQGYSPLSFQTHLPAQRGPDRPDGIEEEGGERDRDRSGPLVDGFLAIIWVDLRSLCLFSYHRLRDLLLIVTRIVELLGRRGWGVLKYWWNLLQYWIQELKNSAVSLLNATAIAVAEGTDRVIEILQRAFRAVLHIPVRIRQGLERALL"}}, "data": [{"substance": "N6 (antibody)", "values": [{"measurement": "IC50, TZM-bl pseudovirus neutralization assay", "setting": "[1]", "result": 16.2, "unit": "µg/mL"}, {"measurement": "IC50, TZM-bl pseudovirus neutralization assay", "setting": "[2]", "result": "> 20", "unit": "µg/mL"}]}, {"substance": "VRC07-523-LS (antibody)", "values": [{"measurement": "IC50, TZM-bl pseudovirus neutralization assay", "setting": "[1]", "result": "> 20", "unit": "µg/mL"}]}, {"substance": "3BNC117 (antibody)", "values": [{"measurement": "IC50, TZM-bl pseudovirus neutralization assay", "setting": "[1]", "result": "> 20", "unit": "µg/mL"}, {"measurement": "IC50, TZM-bl pseudovirus neutralization assay", "setting": "[2]", "result": "> 20", "unit": "µg/mL"}]}, {"substance": "8ANC131 (antibody)", "values": [{"measurement": "IC50, TZM-bl cell neutralization assay", "setting": "[3]", "result": 0.256, "unit": "µg/mL"}]}, {"substance": "VRC01 (antibody)", "values": [{"measurement": "IC50, TZM-bl pseudovirus neutralization assay", "setting": "[1]", "result": "> 20", "unit": "µg/mL"}, {"measurement": "IC50, TZM-bl pseudovirus neutralization assay", "setting": "[2]", "result": "> 20", "unit": "µg/mL"}, {"measurement": "IC50, TZM-bl cell neutralization assay", "setting": "[3]", "result": 0.107, "unit": "µg/mL"}]}]}
